Results: US20220332800A1

What was measured:
[1] = target: ZIKV-VLP (Native Antigen Inc.) (Zika virus); assay: BLI binning on ZIKV-VLP; 1st mAb: 306-2
[2] = target: ZIKV-VLP (Native Antigen Inc.) (Zika virus); assay: BLI binning on ZIKV-VLP; 1st mAb: 78-2
[3] = target: ZIKV-VLP (Native Antigen Inc.) (Zika virus); assay: BLI binning on ZIKV-VLP; 1st mAb: Ab2
[4] = target: ZIKV-VLP (Native Antigen Inc.) (Zika virus); assay: BLI binning on ZIKV-VLP; 1st mAb: 289-3
[5] = target: ZIKV-VLP (Native Antigen Inc.) (Zika virus); assay: BLI binning on ZIKV-VLP; 1st mAb: 11-3
[6] = target: ZIKV-VLP (Native Antigen Inc.) (Zika virus); assay: BLI binning on ZIKV-VLP; 1st mAb: 4G2
[7] = target: ZIKV-VLP (Native Antigen Inc.) (Zika virus); assay: BLI binning on ZIKV-VLP; 1st mAb: 329-2
[8] = target: ZIKV-VLP (Native Antigen Inc.) (Zika virus); assay: BLI binning on ZIKV-VLP; 1st mAb: 270-12
[9] = target: ZIKV-VLP (Native Antigen Inc.) (Zika virus); assay: BLI binning on ZIKV-VLP; 1st mAb: Ab1
[10] = target: ZIKV-VLP (Native Antigen Inc.) (Zika virus); assay: BLI binning on ZIKV-VLP; 1st mAb: 260-2
[11] = target: ZIKV-VLP (Native Antigen Inc.) (Zika virus); assay: BLI binning on ZIKV-VLP; 1st mAb: 102-1
[12] = target: ZIKV-VLP (Native Antigen Inc.) (Zika virus); assay: BLI binning on ZIKV-VLP; 1st mAb: C10
[13] = target: ZIKV-VLP (Native Antigen Inc.) (Zika virus); assay: BLI binning on ZIKV-VLP; 1st mAb: 181-4
[14] = target: purified inactivated Zika virus (PIZV) (Zika virus); assay: indirect ELISA, purified antibody serially diluted from 10 µg/ml
[15] = target: ZIKV-VLP (Native Antigen Inc.) (Zika virus); assay: as above
[16] = target: ZIKV-VLP (Native Antigen Inc.) (Zika virus); assay: BLI binning on ZIKV-VLP; 1st mAb: 242-3
[17] = target: ZIKV-VLP (Native Antigen Inc.) (Zika virus); assay: BLI binning on ZIKV-VLP; 1st mAb (row): 102-1
[18] = target: ZIKV-VLP (Native Antigen Inc.) (Zika virus); assay: BLI binning on ZIKV-VLP; 1st mAb (row): 289-3
[19] = target: ZIKV-VLP (Native Antigen Inc.) (Zika virus); assay: BLI binning on ZIKV-VLP; 1st mAb (row): 306-2
[20] = target: ZIKV-VLP (Native Antigen Inc.) (Zika virus); assay: BLI binning on ZIKV-VLP; 1st mAb (row): C10
[21] = target: Zika PRVABC59 live virus (Zika virus); assay: cell-based or functional assay
[22] = target: ZIKV-VLP (Native Antigen Inc.) (Zika virus); assay: BLI binning on ZIKV-VLP; 1st mAb (row): 242-3
[23] = target: ZIKV-VLP (Native Antigen Inc.) (Zika virus); assay: BLI binning on ZIKV-VLP; 1st mAb (row): 270-12

## 4G2 (commercially-available anti-dengue antibody)
[1]
  response of 2nd mAb: 0.43
[2]
  response of 2nd mAb: 0.17
[3]
  response of 2nd mAb: -0.08
[4]
  response of 2nd mAb: 0.51
[5]
  response of 2nd mAb: 0.52
[6]
  response of 2nd mAb: 0.62
[7]
  response of 2nd mAb: 0.51
[8]
  response of 2nd mAb: 0.43
[9]
  response of 2nd mAb: 0.52
[10]
  response of 2nd mAb: 0.54
[11]
  response of 2nd mAb: 0.46
[12]
  response of 2nd mAb: 0.54
[13]
  response of 2nd mAb: 0.5
[14]
  EC50: 0.0182 µg/mL
[15]
  EC50 (half-maximal binding concentration): 0.33 µg/mL
[16]
  response of 2nd mAb: 0.52

## C10 (commercially-available anti-dengue antibody)
[17]
  response of 2nd mAb: -0.0138
[1]
  response of 2nd mAb: 0.62
[2]
  response of 2nd mAb: 0.56
[3]
  response of 2nd mAb: 0.05
[18]
  response of 2nd mAb: -0.0388
[4]
  response of 2nd mAb: 0.63
[19]
  response of 2nd mAb: 0.0209
[20]
  response of 2nd mAb: -0.0123
[21]
  MNT IC50 (ng/mL) of Purified antibody: 306 ng/mL
[22]
  response of 2nd mAb: -0.0078
[5]
  response of 2nd mAb: 0.63
[6]
  response of 2nd mAb: 0.24
[7]
  response of 2nd mAb: 0.57
[8]
  response of 2nd mAb: 0.58
[9]
  response of 2nd mAb: 0.66
[23]
  response of 2nd mAb: -0.0081
[10]
  response of 2nd mAb: 0.61
[11]
  response of 2nd mAb: 0.68
[12]
  response of 2nd mAb: 0.17
[13]
  response of 2nd mAb: 0.55
[14]
  EC50 (half-maximal binding concentration): 0.0268 µg/mL
[15]
  EC50 (half-maximal binding concentration): 0.162 µg/mL
[16]
  response of 2nd mAb: 0.59
